Results published in the supplement of paper PMC10567573.

B1: FAM164C (parent)
chain: YPHCTGISQQDPESDSQGQGNGLF

Variants of: B1
Experiment: protein stability index of a GFP-peptide fusion (GPS, HEK-293T) (PSI 1-6); higher = more stable
Settings: c terminus: a fixed tail appended
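Note: lentivirally expressed fusions sorted by FACS into six bins by GFP to DsRed ratio, PSI derived from sequencing read proportions per bin multiplied by bin number.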

| Variant | protein stability index |
| --- | --- |
| YPHCTGISQQDPESDFQGQGNGLF | 3.13 |
| YPHCTGISQQDPESDNQGQGNGLF | 4.18 |
| YPHCTGISQQDPESDVQGQGNGLF | 3.69 |
| YPHCTGISQQDPESDCQGQGNGLF | 3.35 |
| YPHCTGISQQDPESDQQGQGNGLF | 3.8 |
| YPHCTGISQQDPESDWQGQGNGLF | 2.76 |
| YPHCTGISQQDPESDAQGQGNGLF | 3.71 |
| YPHCTGISQQDPESDGQGQGNGLF | 3.71 |
| YPHCTGISQQDPESDLQGQGNGLF | 2.74 |
| YPHCTGISQQDPESDTQGQGNGLF | 3.73 |
| YPHCTGISQQDPESDYQGQGNGLF | 3.44 |
| YPHCTGISQQDPESDMQGQGNGLF | 3.62 |
| YPHCTGISQQDPESDPQGQGNGLF | 3.92 |
| YPHCTGISQQDPESDHQGQGNGLF | 3.78 |
| YPHCTGISQQDPESDEQGQGNGLF | 4.16 |
| YPHCTGISQQDPESDDQGQGNGLF | 4.24 |
| YPHCTGISQQDPESDRQGQGNGLF | 3.31 |
| YPHCTGISQQDPESDKQGQGNGLF | 3.61 |
| YPHCTGISQQDPESDIQGQGNGLF | 3.1 |
| YPHCTGISQQDPESDSDGQGNGLF | 3.26 |
| YPHCTGISQQDPESDSFGQGNGLF | 2.81 |
| YPHCTGISQQDPESDSVGQGNGLF | 3.4 |
| YPHCTGISQQDPESDSPGQGNGLF | 3.6 |
| YPHCTGISQQDPESDSWGQGNGLF | 2.97 |

| Variant | protein stability index |
| --- | --- |
| YPHCTGISQQDPESDSTGQGNGLF | 3.64 |
| YPHCTGISQQDPESDSMGQGNGLF | 3.8 |
| YPHCTGISQQDPESDSGGQGNGLF | 3.74 |
| YPHCTGISQQDPESDSHGQGNGLF | 3.36 |
| YPHCTGISQQDPESDSSGQGNGLF | 3.79 |
| YPHCTGISQQDPESDSEGQGNGLF | 4.4 |
| YPHCTGISQQDPESDSRGQGNGLF | 3.71 |
| YPHCTGISQQDPESDSLGQGNGLF | 2.96 |
| YPHCTGISQQDPESDSAGQGNGLF | 3.88 |
| YPHCTGISQQDPESDSNGQGNGLF | 4.14 |
| YPHCTGISQQDPESDSYGQGNGLF | 3.02 |
| YPHCTGISQQDPESDSCGQGNGLF | 3.39 |
| YPHCTGISQQDPESDSKGQGNGLF | 3.51 |
| YPHCTGISQQDPESDSIGQGNGLF | 3.42 |
| YPHCTGISQQDPEDDSQGQGNGLF | 4.2 |
| YPHCTGISQQDPEMDSQGQGNGLF | 3.4 |
| YPHCTGISQQDPEYDSQGQGNGLF | 3.27 |
| YPHCTGISQQDPEVDSQGQGNGLF | 4.3 |
| YPHCTGISQQDPELDSQGQGNGLF | 3.77 |
| YPHCTGISQQDPEWDSQGQGNGLF | 3.13 |
| YPHCTGISQQDPEQDSQGQGNGLF | 3.93 |
| YPHCTGISQQDPEPDSQGQGNGLF | 4.28 |
| YPHCTGISQQDPEFDSQGQGNGLF | 2.73 |
| YPHCTGISQQDPEHDSQGQGNGLF | 3.73 |

| Variant | protein stability index |
| --- | --- |
| YPHCTGISQQDPENDSQGQGNGLF | 3.89 |
| YPHCTGISQQDPEEDSQGQGNGLF | 3.84 |
| YPHCTGISQQDPECDSQGQGNGLF | 3.54 |
| YPHCTGISQQDPERDSQGQGNGLF | 3.79 |
| YPHCTGISQQDPEIDSQGQGNGLF | 3.25 |
| YPHCTGISQQDPETDSQGQGNGLF | 3.71 |
| YPHCTGISQQDPEADSQGQGNGLF | 3.86 |
| YPHCTGISQQDPEKDSQGQGNGLF | 4.23 |
| YPHCTGISQQDPEGDSQGQGNGLF | 3.74 |
| YPHCTGISQQDPESDSQGQGAGLF | 3.83 |
| YPHCTGISQQDPESDSQGQGEGLF | 4.86 |
| YPHCTGISQQDPESDSQGQGDGLF | 4.5 |
| YPHCTGISQQDPESDSQGQGGGLF | 3.5 |
| YPHCTGISQQDPESDSQGQGFGLF | 2.62 |
| YPHCTGISQQDPESDSQGQGCGLF | 3.65 |
| YPHCTGISQQVPESDSQGQGNGLF | 3.5 |
| YPHCTGISQQMPESDSQGQGNGLF | 3.41 |
| YPHCTGISQQLPESDSQGQGNGLF | 3.37 |
| YPHCTGISQQNPESDSQGQGNGLF | 3.62 |
| YPHCTGISQQQPESDSQGQGNGLF | 3.73 |
| YPHCTGISQQRPESDSQGQGNGLF | 3.29 |
| YPHCTGISQQSPESDSQGQGNGLF | 3.58 |
| YPHCTGISQQYPESDSQGQGNGLF | 2.94 |
| YPHCTGISQQWPESDSQGQGNGLF | 2.32 |

| Variant | protein stability index |
| --- | --- |
| YPHCTGISQQTPESDSQGQGNGLF | 3.17 |
| YPHCTGISQQPPESDSQGQGNGLF | 3.85 |
| YPHCTGISQQDPESDSQQQGNGLF | 3.72 |
| YPHCTGISQQDPESDSQEQGNGLF | 4.19 |
| YPHCTGISQQDPESDSQAQGNGLF | 3.83 |
| YPHCTGISQQDPESDSQMQGNGLF | 3.19 |
| YPHCTGISQQDPESDSQHQGNGLF | 3.74 |
| YPHCTGISQQDPESDSQCQGNGLF | 3.9 |
| YPHCTGISQQDPESDSQLQGNGLF | 3.42 |
| YPHCTGISQQDPESDSQSQGNGLF | 3.77 |
| YPHCTGISQQDPESDSQFQGNGLF | 2.54 |
| YPHCTGISQQDPESDSQYQGNGLF | 3 |
| YPHCTGISQQDPESDSQPQGNGLF | 3.83 |
| YPHCTGISQQDPESDSQKQGNGLF | 3.5 |
| YPHCTGISQQDPESDSQIQGNGLF | 3.32 |
| YPHCTGISQQDPESDSQTQGNGLF | 3.41 |
| YPHCTGISQQDPESDSQDQGNGLF | 3.67 |
| YPHCTGISQQDPESDSQNQGNGLF | 3.58 |
| YPHCTGISQQDPESDSQVQGNGLF | 3.32 |
| YPHCTGISQQDPESDSQRQGNGLF | 3.83 |
| YPHCTGISQQDPESDSQWQGNGLF | 2.62 |
| YPHCTGISQQDPESRSQGQGNGLF | 3.54 |
| YPHCTGISQQDPESASQGQGNGLF | 3.53 |
| YPHCTGISQQDPESSSQGQGNGLF | 3.73 |

| Variant | protein stability index |
| --- | --- |
| YPHCTGISQQDPESLSQGQGNGLF | 2.8 |
| YPHCTGISQQDPESWSQGQGNGLF | 2.63 |
| YPHCTGISQQDPESPSQGQGNGLF | 3.46 |
| YPHCTGISQQDPESESQGQGNGLF | 4.07 |
| YPHCTGISQQDPESFSQGQGNGLF | 2.94 |
| YPHCTGISQQDPESISQGQGNGLF | 2.9 |
| YPHCTGISQQDPESCSQGQGNGLF | 2.79 |
| YPHCTGISQQDPESVSQGQGNGLF | 3.51 |
| YPHCTGISQQDPESHSQGQGNGLF | 3.66 |
| YPHCTGISQQDPESTSQGQGNGLF | 2.95 |
| YPHCTGISQQDPESNSQGQGNGLF | 3.84 |
| YPHCTGISQQDPESKSQGQGNGLF | 3.64 |
| YPHCTGISQQDPESGSQGQGNGLF | 2.94 |
| YPHCTGISQQDPESQSQGQGNGLF | 3.44 |
| YPHCTGISQQDPESYSQGQGNGLF | 3.23 |
| YPHCTGISQQDPESMSQGQGNGLF | 2.9 |
| YPHCTGISQQDPLSDSQGQGNGLF | 2.81 |
| YPHCTGISQQDPSSDSQGQGNGLF | 3.08 |
| YPHCTGISQQDPYSDSQGQGNGLF | 2.97 |
| YPHCTGISQQDPPSDSQGQGNGLF | 3.51 |
| YPHCTGISQQDPGSDSQGQGNGLF | 3.38 |
| YPHCTGISQQDPDSDSQGQGNGLF | 3.87 |
| YPHCTGISQQDPTSDSQGQGNGLF | 3.15 |
| YPHCTGISQQDPNSDSQGQGNGLF | 3.23 |

| Variant | protein stability index |
| --- | --- |
| YPHCTGISQQDPMSDSQGQGNGLF | 3.21 |
| YPHCTGISQQDPASDSQGQGNGLF | 3.46 |
| YPHCTGISQQDPVSDSQGQGNGLF | 3.66 |
| YPHCTGISQQDPKSDSQGQGNGLF | 3.28 |
| YPHCTGISQQDPRSDSQGQGNGLF | 2.93 |
| YPHCTGISQQDPHSDSQGQGNGLF | 3.4 |
| YPHCTGISQQDPCSDSQGQGNGLF | 3.34 |
| YPHCTGISQQDPISDSQGQGNGLF | 3.21 |
| YPHCTGISQQDPQSDSQGQGNGLF | 3.31 |
| YPHCTGISQQDPFSDSQGQGNGLF | 2.44 |
| YPHCTGISQQDPWSDSQGQGNGLF | 1.9 |
| YPHCTGISQQDPESDSQGVGNGLF | 3.52 |
| YPHCTGISQQDPESDSQGHGNGLF | 3.64 |
| YPHCTGISQQDPESDSQGNGNGLF | 3.66 |
| YPHCTGISQQDPESDSQGAGNGLF | 3.87 |
| YPHCTGISQQDPESDSQGSGNGLF | 3.9 |
| YPHCTGISQQDPESDSQGTGNGLF | 3.81 |
| YPHCTGISQQDPESDSQGKGNGLF | 3.85 |
| YPHCTGISQQDPESDSQGRGNGLF | 3.51 |
| YPHCTGISQQDPESDSQGLGNGLF | 3.3 |
| YPHCTGISQQDPESDSQGGGNGLF | 4.21 |
| YPHCTGISQQDPESDSQGWGNGLF | 2.75 |
| YPHCTGISQQDPESDSQGCGNGLF | 3.24 |
| YPHCTGISQQDPESDSQGIGNGLF | 3.26 |

| Variant | protein stability index |
| --- | --- |
| YPHCTGISQQDPESDSQGEGNGLF | 4.21 |
| YPHCTGISQQDPESDSQGMGNGLF | 3.22 |
| YPHCTGISQQDPESDSQGFGNGLF | 2.88 |
| YPHCTGISQQDPESDSQGDGNGLF | 4.1 |
| YPHCTGISQQDPESDSQGPGNGLF | 3.86 |
| YPHCTGISQQDPESDSQGYGNGLF | 3.36 |
| YPHCTGISQQDPESDSQGQLNGLF | 3.11 |
| YPHCTGISQQDPESDSQGQFNGLF | 2.56 |
| YPHCTGISQQDPESDSQGQMNGLF | 3.9 |
| YPHCTGISQQDPESDSQGQENGLF | 4.33 |
| YPHCTGISQQDPESDSQGQWNGLF | 2.35 |
| YPHCTGISQQDPESDSQGQVNGLF | 3.44 |
| YPHCTGISQQDPESDSQGQRNGLF | 3.65 |
| YPHCTGISQQDPESDSQGQPNGLF | 3.59 |
| YPHCTGISQQDPESDSQGQCNGLF | 3.57 |
| YPHCTGISQQDPESDSQGQYNGLF | 2.03 |
| YPHCTGISQQDPESDSQGQDNGLF | 4.39 |
| YPHCTGISQQDPESDSQGQKNGLF | 3.66 |
| YPHCTGISQQDPESDSQGQQNGLF | 3.79 |
| YPHCTGISQQDPESDSQGQHNGLF | 3.08 |
| YPHCTGISQQDPESDSQGQANGLF | 3.12 |
| YPHCTGISQQDPESDSQGQTNGLF | 3.33 |
| YPHCTGISQQDPESDSQGQSNGLF | 3.79 |
| YPHCTGISQQDPESDSQGQINGLF | 3.02 |

| Variant | protein stability index |
| --- | --- |
| YPHCTGISQQDPESDSQGQNNGLF | 3.48 |
| YPHCTGISQQDIESDSQGQGNGLF | 3.51 |
| YPHCTGISQQDAESDSQGQGNGLF | 3.95 |
| YPHCTGISQQDQESDSQGQGNGLF | 3.71 |
| YPHCTGISQQDLESDSQGQGNGLF | 3.65 |
| YPHCTGISQQDNESDSQGQGNGLF | 3.48 |
| YPHCTGISQQDRESDSQGQGNGLF | 3.18 |
| YPHCTGISQQDDESDSQGQGNGLF | 3.91 |
| YPHCTGISQQDHESDSQGQGNGLF | 3.73 |
| YPHCTGISQQDKESDSQGQGNGLF | 3.57 |
| YPHCTGISQQDTESDSQGQGNGLF | 3.74 |
| YPHCTGISQQDSESDSQGQGNGLF | 3.98 |
| YPHCTGISQQDVESDSQGQGNGLF | 3.96 |
| YPHCTGISQQDMESDSQGQGNGLF | 3.6 |
| YPHCTGISQQDGESDSQGQGNGLF | 3.45 |
| YPHCTGISQQDEESDSQGQGNGLF | 4.08 |
| YPHCTGISQQDFESDSQGQGNGLF | 3.56 |
| YPHCTGISQQDCESDSQGQGNGLF | 3.77 |
| YPHCTGISQQDYESDSQGQGNGLF | 3.54 |
| YPHCTGISQQDWESDSQGQGNGLF | 3.27 |
